Consider 62 sequences from the supplement of paper PMC9112550, “Optimization of the antimicrobial peptide Bac7 by deep mutational scanning” (BMC Biology, 2022).

In this series the test system is Escherichia coli TOP10. The series is described as follows: shrunken log2 fold change of peptide-encoding DNA abundance (4.5 h post-induction vs induction); higher = less antimicrobial activity (less host growth inhibition). Particulars: time post-induction: 4.5 h; library: site-saturation at positions 5, 18, 19, 20.
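Note: peptides expressed intracellularly from a pBAD plasmid library in pooled LB shake-flask culture, induced with 0.3% L-arabinose, DNA abundance read by NGS, three biological replicates, DESeq2 with apeglm shrinkage.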

As to RRIRTRPPRLPRPRPRPAYGPRP, the “shrunken log2 fold change” value is -0.285. To RRIRGRPPRLPRPRPRPFEWPRP belongs -0.127; to RRIRTRPPRLPRPRPRPIEPPRP, -0.0864. To RRIRVRPPRLPRPRPRPGFHPRP belongs -0.184; to RRIRERPPRLPRPRPRPNCPPRP, -0.409; to RRIRYRPPRLPRPRPRPEFIPRP, -0.628.

Turning to RRIRRRPPRLPRPRPRPDHGPRP, the “shrunken log2 fold change” value is -0.146. To RRIRCRPPRLPRPRPRPLMPPRP belongs -0.151. Turning to RRIRFRPPRLPRPRPRPEDTPRP, the “shrunken log2 fold change” value amounted to 0.144. To RRIRSRPPRLPRPRPRPSTNPRP belongs -0.546. For the sequence RRIRLRPPRLPRPRPRPFVHPRP, the “shrunken log2 fold change” value is -0.308. Consider RRIRGRPPRLPRPRPRPDNKPRP, for which the “shrunken log2 fold change” value is -0.169. As to RRIRVRPPRLPRPRPRPHAYPRP, the “shrunken log2 fold change” value is -0.473. For RRIRFRPPRLPRPRPRPRENPRP the value was 0.449. As to RRIRIRPPRLPRPRPRPGMAPRP, the “shrunken log2 fold change” value stood at 0.006.

RRIRSRPPRLPRPRPRPSEGPRP: the “shrunken log2 fold change” value was -0.559. RRIRWRPPRLPRPRPRPLRQPRP: the “shrunken log2 fold change” value worked out at 0.539. To RRIRIRPPRLPRPRPRPRNGPRP belongs 0.103; to RRIRTRPPRLPRPRPRPYFKPRP, -0.577. For RRIRNRPPRLPRPRPRPFENPRP the value was -0.0135; for RRIRGRPPRLPRPRPRPYGYPRP, 0.158.

RRIRKRPPRLPRPRPRPLESPRP: the “shrunken log2 fold change” value stood at 0.515. For RRIRCRPPRLPRPRPRPYARPRP the value was -0.746; for RRIRHRPPRLPRPRPRPFIGPRP, -0.231.

RRIRHRPPRLPRPRPRPVPHPRP: the “shrunken log2 fold change” value is -0.031.

As to RRIRKRPPRLPRPRPRPWPLPRP, the “shrunken log2 fold change” value is -0.0227. For RRIRARPPRLPRPRPRPARVPRP the value was 0.813; for RRIRLRPPRLPRPRPRPFAEPRP, 0.102; for RRIRLRPPRLPRPRPRPTNKPRP, -0.264. For RRIRTRPPRLPRPRPRPGFGPRP, the “shrunken log2 fold change” value came out at 0.263. In the case of RRIRGRPPRLPRPRPRPNSSPRP, the “shrunken log2 fold change” value is -0.00499. For RRIRPRPPRLPRPRPRPVKQPRP, the “shrunken log2 fold change” value is 0.169. For RRIRWRPPRLPRPRPRPAAQPRP the value was -0.0638; for RRIRMRPPRLPRPRPRPRNYPRP, -0.0232. Regarding RRIRHRPPRLPRPRPRPYGHPRP, the “shrunken log2 fold change” value is -0.551. Turning to RRIRSRPPRLPRPRPRPDEEPRP, the “shrunken log2 fold change” value was determined as 0.895. To RRIRFRPPRLPRPRPRPVKYPRP belongs -0.147; to RRIRDRPPRLPRPRPRPCLHPRP, 0.0931. For RRIRVRPPRLPRPRPRPTDDPRP the value was -0.183; for RRIRGRPPRLPRPRPRPDSEPRP, 0.321; for RRIRFRPPRLPRPRPRPSLPPRP, 0.0593.

Take RRIRRRPPRLPRPRPRPLLFPRP: the “shrunken log2 fold change” value is 0.278. To RRIRFRPPRLPRPRPRPLRDPRP belongs 0.717; to RRIRVRPPRLPRPRPRPHMYPRP, -0.509; to RRIRYRPPRLPRPRPRPNDTPRP, -0.921. To RRIRWRPPRLPRPRPRPGYIPRP belongs 0.226; to RRIRKRPPRLPRPRPRPARKPRP, -0.0215. For RRIRIRPPRLPRPRPRPGGKPRP the value was -0.31. With RRIRARPPRLPRPRPRPGSAPRP, the “shrunken log2 fold change” value stood at 0.444.

In the case of RRIRIRPPRLPRPRPRPMGKPRP, the “shrunken log2 fold change” value is -0.0139. Regarding RRIRIRPPRLPRPRPRPSAAPRP, the “shrunken log2 fold change” value stood at 0.0317. To RRIRVRPPRLPRPRPRPKMDPRP belongs -0.093; to RRIRGRPPRLPRPRPRPVGVPRP, 1.08; to RRIRKRPPRLPRPRPRPFHQPRP, -0.0483. To RRIRFRPPRLPRPRPRPPHTPRP belongs 0.126; to RRIRRRPPRLPRPRPRPIGEPRP, -0.00811; to RRIRMRPPRLPRPRPRPMLAPRP, 2.84.

RRIRMRPPRLPRPRPRPIVLPRP: the “shrunken log2 fold change” value is -0.0572. With RRIRTRPPRLPRPRPRPHTIPRP, the “shrunken log2 fold change” value is -0.314. To RRIRGRPPRLPRPRPRPKIIPRP belongs 0.303. To RRIRSRPPRLPRPRPRPRPIPRP belongs -0.0533.

For RRIRQRPPRLPRPRPRPHDWPRP, the “shrunken log2 fold change” value was -0.372.
